Measurements as given in article PMC12448354.

Experiments:
[1] = molecular target: Monodelphis domestica von Willebrand factor (VWF), purified from plasma (Monodelphis domestica)
[2] = molecular target: human von Willebrand factor (VWF) (human) (UniProt P04275)

**Q.** For “botrocetin from Bothrops jararaca (purified venom fraction) (complex)”, which reduction in the overall extent of platelet adhesion to collagen under flow (60 dyn/cm^2), opossum PRP with 4 ug/mL botrocetin, against the control without venom protein [1] is on record?
**A.** Its reduction in the overall extent of platelet adhesion to collagen under flow (60 dyn/cm^2), opossum PRP with 4 ug/mL botrocetin, against the control without venom protein is 39%.

**Q.** And the reduction in the overall extent of platelet adhesion to collagen under flow (60 dyn/cm^2), human PRP with 4 ug/mL botrocetin, against the control without venom protein [2]?
**A.** The reduction in the overall extent of platelet adhesion to collagen under flow (60 dyn/cm^2), human PRP with 4 ug/mL botrocetin, against the control without venom protein was 66%.
